B1: H4H14638D (bispecific antibody, human IgG4, V domains shown)
VH 1: QVQLVESGGGVVQPGRSLRLSCAASGFTFSNFGMHWVRQAPGKGLEWVAGIWFDGSNKNYIDSVKGRFTISRDNSKNTLYLQMNSLRAEDTAVYYCAREGYDSGTDYIPYDIFDIWGQGTMVTVSS
VH 2: EVQLVESGGGLVQPGGSLRLSCAASGFIVTTNYMTWLRQAPGKGLEWVSLIYSSGHTYYADSVKGRFTISRHNSKNTLYLQMDSLRAEDTAVYYCASAFAADVFDIWGQGTMVTVSS
VL: not shown
B2: H4H14641D (bispecific antibody, human IgG4, V domains shown)
VH 1: QVQLVESGGGVVQPGRSLRLSCSASGFSFSHFGMHWVRQVPGGGLEWVTSIWFDGSNRYYADSLKGRFTISRDNSKNTLYLEMNSLRAEDTAVYYCVREGILGTTNPYDVFDVWGQGTMVTVSS
VH 2: B1 VH 2
VL: not shown
B3: H4H14636D (bispecific antibody, human IgG4, V domains shown)
VH 1: EVQLVESGGGLVQPGGSLRLSCAASGFIFSNYEMNWVRQAPGKGLEWISYITSSGNMKYYADSVKGRFTISRDNDKNSLYLQMSSLRVEDTAVYYCVRGGRFLEWLTYYVMVVWGQGTTVTVSS
VH 2: B1 VH 2
VL: not shown
B4: H4H14637D (bispecific antibody, human IgG4, V domains shown)
VH 1: QVQLVESGGGVVQPGTSLRLSCVASGFTFRNFGMHWVRQAPGKGLEWVANIWFDGSNENYVESIQGRFTISRDNSKNTLNLQMNSLRAEDSAVYYCVREGILGTTNPYDAFDVWGQGTMVTVSS
VH 2: B1 VH 2
VL: not shown
B5: H4H16445D (bispecific antibody, human IgG4, V domains shown)
VH 1: QVQLVESGGGVVQPGGSLRLSCAASGFTFSGYGMHWVRQAPGKGLEWMAVIWYDGSNDYYPDSVKGRFTISRDNSKNTLYLQMNSLRVEDTAVYYCARDAWDLLRSFDYWGQGTLVTVSS
VH 2: B1 VH 2
VL: not shown
B6: H4H16446D (bispecific antibody, human IgG4, V domains shown)
VH 1: QVQLVESGGGVVQPGRSLRLSCAVSGFTFSSYGMHWVRQAPGKGLEWVANIWYDGTNDYYPYSVKGRFTISRDNSQNTLYLQMNSLRAEDTAVYYCAREDFINYRSFDYWGQGTLVTVSS
VH 2: B1 VH 2
VL: not shown
B7: H4H16447D (bispecific antibody, human IgG4, V domains shown)
VH 1: QVQLVESGGGVVQPGRSLRLSCAASGFTFSSYAMHWVRQAPGRGLEWVAVIWHDGDVEYYVDSVKDRFTISRDNSKSTLYLQMNSLRAEDTALYYCAREAWDLLRPFDYWGQGTLVTVSS
VH 2: B1 VH 2
VL: not shown
B8: H4H16448D (bispecific antibody, human IgG4, V domains shown)
VH 1: QVQLVESGGGVVQPGRSLRLSCVASGFSFSNFGMHWVRQAPGKGLEWVAIIWYDGSNKYYSDSVKGRFTISRDNSKNTLYLQMNSLRVDDTAVYYCARFDRWKFDAFDIWGQGTMVTVSS
VH 2: B1 VH 2
VL: not shown
B9: H4H16449D (bispecific antibody, human IgG4, V domains shown)
VH 1: QVQLVESGGGVVQPGRSLRLSCAASGFTFSSFAMHWVRQAPGKGLEWVAVIWYDGSNDYYAASVKGRFTISRDNSKNTLYLEMNRLRAEDTAVYHCARDNWNYWGGMDVWGQGTTVTVSS
VH 2: B1 VH 2
VL: not shown
B10: H1H13301P2 (antibody, V domains shown)
VH: B4 VH 1
VL: not shown
B11: H1H13316P2 (antibody, V domains shown)
VH: EVQLVESGGGLVQPGGSLRLSCAASGFTFRSYVMSWFRQAPGKGLEWVSGMSGSGGSTSYADSVKGRFTISRDNSKNTLYLLMNSLRTEDTAVYYCAKENGANWNYGYYGMDVWGQGTTVTVSS
VL: not shown
B12: H4H13312P2 (antibody, human IgG4, V domains shown)
VH: B1 VH 2
VL: not shown
B13: H4H13325P2 (antibody, human IgG4, V domains shown)
VH: EVQLLESGGGWVQPGGSLRLSCAASGFAFSNYAMNWVRQTPGKGLEWVSVISSSGGNTYYADSVKGRFAISRDNSRDTLHLQMNRLRVEDTAVYYCAKEIRPYYDLSYYYGMDVWGQGTTVTVSS
VL: not shown
B14: H4H13316P2 (antibody, human IgG4, V domains shown)
VH: B11 VH
VL: not shown
B15: H4H13302P2 (antibody, human IgG4, V domains shown)
VH: B1 VH 1
VL: not shown
B16: H4H13313P2 (antibody, human IgG4, V domains shown)
VH: B2 VH 1
VL: not shown
B17: H4H13301P2 (antibody, human IgG4, V domains shown)
VH: B4 VH 1
VL: not shown
B18: H4H13295P2 (antibody, human IgG4, V domains shown)
VH: QVQLVESGGGVVQPGRSLRVSCVVSGFTFSSFGMHWVRQAPDKGLEWVAVIWYDGSNDYYSDSVKGRFTISRDNSKNTLFLQMNRLRAEDTAVYYCARANNWNRFDAFDLWGQGTMVTVSS
VL: not shown
B19: H4H13306P2 (antibody, human IgG4, V domains shown)
VH: EVQLVESGGGLVQPGTSLRLSCAASGFTFDDYAMHWVRQAPGKGLEWVSGITWNSYNIDYADSVKGRFTISRDNAKNSLYLQMNSLRAEDTALYYCAKDDDYSNYVYFDYWGQGTLVTVSS
VL: not shown
B20: H4H13291P2 (antibody, human IgG4, V domains shown)
VH: B5 VH 1
VL: not shown
B21: H4H13319P2 (antibody, human IgG4, V domains shown)
VH: B9 VH 1
VL: not shown
B22: H4H13309P2 (antibody, human IgG4, V domains shown)
VH: QVQLVQSGTEVKEPGASVKVSCKASGYSFTTYGISWLRQAPGQGLEWMGWISTYNGDTISAQMLQDRVTLTADTSTRTAYMELRSLRSDDTAVYYCARGHEYDSLVYSYWGQGTLVTVSS
VL: not shown

target: human MET (c-Met, hepatocyte growth factor receptor), endogenous on human cell lines (human, UniProt P08581 25-1390); assay: cell-based or functional assay
Wherever % Inhibition (HEK293/SRE-Luc Blocking Activity, 1 h mAb pre-bind) is given: test concentration or dose not given here.

Sequence of human MET (c-Met, hepatocyte growth factor receptor), endogenous on human cell lines (P08581 25-1390 limits assumed, form in doubt): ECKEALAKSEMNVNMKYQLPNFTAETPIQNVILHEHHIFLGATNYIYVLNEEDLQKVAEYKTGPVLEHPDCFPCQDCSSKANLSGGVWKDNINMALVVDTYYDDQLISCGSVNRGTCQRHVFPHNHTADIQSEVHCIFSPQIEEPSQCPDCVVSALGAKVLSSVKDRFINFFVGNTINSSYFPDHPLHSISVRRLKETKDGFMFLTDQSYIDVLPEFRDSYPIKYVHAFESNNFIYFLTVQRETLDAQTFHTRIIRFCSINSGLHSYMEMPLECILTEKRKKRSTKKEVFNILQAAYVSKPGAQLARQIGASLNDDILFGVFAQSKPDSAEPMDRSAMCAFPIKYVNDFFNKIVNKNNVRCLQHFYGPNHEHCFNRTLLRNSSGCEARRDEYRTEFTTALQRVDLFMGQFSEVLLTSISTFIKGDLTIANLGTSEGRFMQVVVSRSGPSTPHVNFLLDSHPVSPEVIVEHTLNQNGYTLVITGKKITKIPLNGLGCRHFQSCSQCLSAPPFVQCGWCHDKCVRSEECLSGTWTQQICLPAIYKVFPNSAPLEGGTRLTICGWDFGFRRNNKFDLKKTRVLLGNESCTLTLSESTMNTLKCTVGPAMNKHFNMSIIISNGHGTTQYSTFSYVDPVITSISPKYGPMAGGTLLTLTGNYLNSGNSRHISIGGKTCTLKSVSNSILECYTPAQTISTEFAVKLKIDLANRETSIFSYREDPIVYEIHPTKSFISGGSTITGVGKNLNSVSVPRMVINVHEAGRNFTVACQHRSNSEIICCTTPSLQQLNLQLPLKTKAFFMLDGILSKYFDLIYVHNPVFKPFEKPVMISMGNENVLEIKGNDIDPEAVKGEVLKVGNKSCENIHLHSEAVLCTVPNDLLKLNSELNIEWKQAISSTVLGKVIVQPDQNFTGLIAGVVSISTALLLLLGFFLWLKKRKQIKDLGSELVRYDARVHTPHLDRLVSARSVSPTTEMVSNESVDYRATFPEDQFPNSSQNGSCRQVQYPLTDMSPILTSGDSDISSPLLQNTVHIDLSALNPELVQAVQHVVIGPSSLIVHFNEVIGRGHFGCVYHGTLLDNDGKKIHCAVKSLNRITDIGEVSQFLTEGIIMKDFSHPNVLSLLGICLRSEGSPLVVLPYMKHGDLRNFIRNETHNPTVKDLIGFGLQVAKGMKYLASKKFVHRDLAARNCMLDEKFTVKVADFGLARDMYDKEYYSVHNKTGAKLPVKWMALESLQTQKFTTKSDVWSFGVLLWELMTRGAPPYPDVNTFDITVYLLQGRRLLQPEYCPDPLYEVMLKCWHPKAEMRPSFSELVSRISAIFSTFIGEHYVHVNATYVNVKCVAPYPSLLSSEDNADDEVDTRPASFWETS

Binder | % Inhibition (HEK293/SRE-Luc Blocking Activity, 1 h mAb pre-bind) | EC50 (Ligand (HGF)-Independent HEK293/SRE-Luc Activation) | Fold Response (Ligand (HGF)-Independent HEK293/SRE-Luc Activation) | IC50 (HEK293/SRE-Luc Blocking Activity, 1 h mAb pre-bind)
B1 | 79% | 5900 pM | 2.6 fold | 1100 pM
B2 | 75% | 84000 pM | 4.4 fold | 2700 pM
B3 | 74% | 280 pM | 2.8 fold | 
B4 | 73% | 4100 pM | 2.1 fold | 
B5 | 81% | 1000 pM | 4.3 fold | 520 pM
B6 | 83% | 1400 pM | 4 fold | 1000 pM
B7 | 76% | 1400 pM |  | 
B8 | 87% | 910 pM | 4.3 fold | 620 pM
B9 | 85% | 420 pM | 4.2 fold | 320 pM
B10 | 42% |  | 1.4 fold | 3300 pM
B11 | 86% |  | 1.7 fold | 40 pM
B12 | 48% | 120 pM |  | 
B13 | 69% | 190 pM | 4.3 fold | 13 pM
B14 | 74% | 47 pM | 2.3 fold | 7.8 pM
B15 | 45% |  | 1.8 fold | 1600 pM
B16 | 47% |  | 1.2 fold | 2300 pM
B17 | 40% |  | 1.6 fold | 1500 pM
B18 | 70% | 300 pM | 2.8 fold | 55 pM
B19 |  | 13 pM |  | 
B20 | 61% | 390 pM | 2.7 fold | 130 pM
B21 | 67% | 180 pM | 4.8 fold | 52 pM
B22 | 77% | 390 pM | 9.2 fold | 200 pM

Source: US20180134794A1 (Regeneron, published 2018)
